# Source: patent publication US20230227577A1 (MYTHIC THERAPEUTICS, published 2023)
# B1: 2HCE27 anti-DLL3 VHH (VHH)
# VHH: QVQLQESGGGLVQAGGSLRLSCAASGRTFRSYAMGWFRQAPGKEREFIAVIIMSDGSTSYADSVKGRFTISRDNAKNTLYLQMNSLKPEDTAVYYCAARRDYFTGVYDYWGQGTQVTVSS
# notes: In the binning assay it was used as a periplasmic extract; also called anti-DLL3 (2HCE27)
# Assays:
# [1] = target: T1, recombinant human DLL3 protein (human, UniProt Q9NYJ7 27-492, limits assumed); assay: SPR, control: individual binding construct
# T1 construct: also called rhu DLL3; human biotinylated DLL3
# T1 sequence (looked up): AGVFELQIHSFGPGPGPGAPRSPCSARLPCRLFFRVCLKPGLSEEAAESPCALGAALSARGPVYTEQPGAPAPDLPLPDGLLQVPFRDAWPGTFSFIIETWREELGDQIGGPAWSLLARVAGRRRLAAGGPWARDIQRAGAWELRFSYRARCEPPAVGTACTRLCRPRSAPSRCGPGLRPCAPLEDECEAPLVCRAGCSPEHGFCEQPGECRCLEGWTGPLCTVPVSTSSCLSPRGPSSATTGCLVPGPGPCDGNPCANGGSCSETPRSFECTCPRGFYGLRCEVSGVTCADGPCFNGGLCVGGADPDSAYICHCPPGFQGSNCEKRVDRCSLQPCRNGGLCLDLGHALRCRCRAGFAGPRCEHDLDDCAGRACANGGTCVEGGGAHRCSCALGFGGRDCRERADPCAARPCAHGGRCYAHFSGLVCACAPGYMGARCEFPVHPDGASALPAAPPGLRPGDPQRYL
# Experimental: Surface Plasmon Resonance (SPR) was used to assess the binding kinetics and binding affinity. Kinetic rate coefficients were recovered from binding analysis experiments performed with a Biacore 3000 biosensor. Concentrations of the anti-DLL3/anti-CD3/anti-HSA trispecific binding construct ranging from 1.23 nM to 300 nM were run against the SPR sensorgram surfaces immobilized with recombinant human CD3 (rhu CD3) or recombinant HSA (rHSA). Concentrations of recombinant human DLL3 (rhu DLL3) ranging from 1.23 nM to 100 nM were run against the SPR sensorgram surface immobilized with the anti-DLL3/anti-CD3/anti-HSA trispecific binding construct. The association and dissociation phase data were globally fit to a 1:1 model to determine the association rate coefficient (kₒₙ), dissociation rate coefficient (koff), the Rmax value, and the dissociation constant (KD). Results were reported as the global fits to 1:1 model±standard error. The control groups were the three corresponding individual binding constructs. All three antigen binding domains in the trispecific binding construct retain binding to the corresponding antigen.
# mouse DLL3 protein = target: T2, mouse DLL3 protein (mouse, UniProt O88516 33-490, limits assumed); assay: Octet (DLL3 on AR2G tips), ELISA and FACS; values only in FIG. 3
# T2 construct: also called murine DLL3
# T2 sequence (looked up): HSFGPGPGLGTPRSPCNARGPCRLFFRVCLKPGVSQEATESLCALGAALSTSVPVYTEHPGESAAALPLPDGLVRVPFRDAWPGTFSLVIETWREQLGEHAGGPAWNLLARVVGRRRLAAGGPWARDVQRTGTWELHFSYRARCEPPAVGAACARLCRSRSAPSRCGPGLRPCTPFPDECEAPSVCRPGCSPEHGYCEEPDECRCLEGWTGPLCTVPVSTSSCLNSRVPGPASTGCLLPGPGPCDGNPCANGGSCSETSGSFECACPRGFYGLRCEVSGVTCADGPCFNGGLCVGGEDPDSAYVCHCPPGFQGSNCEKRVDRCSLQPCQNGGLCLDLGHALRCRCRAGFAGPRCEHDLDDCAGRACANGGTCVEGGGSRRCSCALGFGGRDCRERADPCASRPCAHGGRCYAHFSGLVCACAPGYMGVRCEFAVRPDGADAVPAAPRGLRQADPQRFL
# [2] = target: T3, DLL3 target antigen coated on Octet SA tips (binning experiment) (Homo sapiens (Human), UniProt Q9NYJ7 27-492, Probably biotinylated for capture on streptavidin (SA) tips. The site is not stated.); assay: Octet binning on DLL3-coated SA tips; competitor: 2HCE27
# T3 sequence: T1 sequence (looked up)
# Experimental: (§1) Antibody binning experiments were carried out for 5 anti-DLL3 VHHs and an anti-human DLL3 BiTE (SEQ ID NO: 756). The target antigen was coated on a series of Octet SA tips. Each series of tips was first soaked in a periplasmic extract containing one specific VHH. After the response signals reached saturation, the tips were transferred to a mix of PEs containing again the first VHH (at the same concentration) plus a different VHH (termed secondary VHH) for each tip of the series. Secondary VHH that still bind the target antigen in the presence of the first VHH will show an increased response, as compared to the binding response of the first VHH alone. This was repeated for each VHH as primary VHH until all VHH were tested against each other in both directions (as primary and as secondary binder). From the response data, the bins were deduced for each VHH. 2HCE117 and 3HCE4 show competition with the human DLL3 BiTEs, whereas 3HCE56 and 3HCE87 show a partial competition.
# [3] = target: T3, DLL3 target antigen coated on Octet SA …; assay: Octet binning on DLL3-coated SA tips; competitor: 3HCE56
# Experimental: as §1
# [4] = target: T3, DLL3 target antigen coated on Octet SA …; assay: Octet binning on DLL3-coated SA tips; competitor: 3HCE87
# Experimental: as §1
# [5] = target: T3, DLL3 target antigen coated on Octet SA …; assay: Octet binning on DLL3-coated SA tips; competitor: DLL3 BiTEs
# Experimental: as §1
# DLL3 (ELISA DLL3) = target: T4, DLL3 (ELISA DLL3); assay: ELISA, ratio of the signal on DLL3 to the signal on the control
# T4 construct: also called DLL3 protein in ELISA
# T4 chain: T1 sequence (looked up)
# [6] = target: T1, recombinant human DLL3 protein; assay: Fortebio Octet Red, DLL3 immobilised on tips, dilution series of the VHH, 1:1 binding model; koff error 6.05E-07; Full R2 0.9994
# Experimental: Additional experiments were carried out to further characterize the binding properties of the anti-DLL3 constructs. Binding properties tested include dissociation constant (KD), off-rate (koff), binding to DLL3 protein by ELISA and binding to CHO cells expressing human, cyno or mouse DLL3. To obtain off-rate (koff), human biotinylated DLL3 was immobilized on Octet SA tips, and cynomolgus or mouse DLL3 was immobilized on Octet AR2G tips. For each DLL3 protein, the binding to a dilution series of each anti-DLL3 construct was measured using Fortebio Octet Red. The dissociation constant (KD), off-rate (koff) and other kinetic parameters for each anti-DLL3 construct were calculated using a 1:1 binding model. In addition, binding of these anti-DLL3 constructs to CHO cells expressing human, cyno or mouse DLL3 protein was analyzed using flow cytometry (FACS).
binder,measurement,setting,value
B1,Kd,[1],7.89 nM
same,koff,[1],0.00064 s⁻¹
same,kon,[1],80000 M⁻¹ s⁻¹
same,binding result,mouse DLL3 protein,binds
same,binning response (unit not given),[2],0
same,binning response (unit not given),[3],6500
same,binning response (unit not given),[4],87.5
same,binning response (unit not given),[5],83.4
same,DLL3 / control,DLL3 (ELISA DLL3),33.3
same,koff,[6],0.000638 s⁻¹
